Common to all, as to experiment: enzyme inhibition assay
Test [1] concerns the target T1, human plasma Kallikrein (human, UniProt P03952 20-638, limits assumed).
T1 construct: also called hPK; human PK

Test [2] concerns the target T1, human plasma Kallikrein. The source holds these as a separate data set.
Test [3] concerns the target T1, human plasma Kallikrein. The source holds these as a separate data set.

This note sets out measurements from patent US10800813 (Bicycle, dated 2020).

Like-named read-outs stand apart in the source and are kept apart here. Numbered stars: 1 amine (or outer) side, 2 acyl side, 3 side chain; on linkers, the order of the positions; unused ones are H or OH. Bridge positions count the residues as written; N and C are the ends. Square brackets hold non-standard residues; d marks the D form. Ends that are not written are not given here. Bip = N[C@@H](Cc1ccc(-c2ccccc2)cc1)C(=O)O; 1Nal = N[C@@H](Cc1cccc2ccccc12)C(=O)O; 2Nal = N[C@@H](Cc1ccc2ccccc2c1)C(=O)O; TBMB = c1c(C[*:1])cc(C[*:3])cc1C[*:2]; 3Pal = N[C@@H](Cc1cccnc1)C(=O)O; 4Pal = N[C@@H](Cc1ccncc1)C(=O)O; Cha = N[C@@H](CC1CCCCC1)C(=O)O

T1 sequence (P03952 20-638 limits assumed): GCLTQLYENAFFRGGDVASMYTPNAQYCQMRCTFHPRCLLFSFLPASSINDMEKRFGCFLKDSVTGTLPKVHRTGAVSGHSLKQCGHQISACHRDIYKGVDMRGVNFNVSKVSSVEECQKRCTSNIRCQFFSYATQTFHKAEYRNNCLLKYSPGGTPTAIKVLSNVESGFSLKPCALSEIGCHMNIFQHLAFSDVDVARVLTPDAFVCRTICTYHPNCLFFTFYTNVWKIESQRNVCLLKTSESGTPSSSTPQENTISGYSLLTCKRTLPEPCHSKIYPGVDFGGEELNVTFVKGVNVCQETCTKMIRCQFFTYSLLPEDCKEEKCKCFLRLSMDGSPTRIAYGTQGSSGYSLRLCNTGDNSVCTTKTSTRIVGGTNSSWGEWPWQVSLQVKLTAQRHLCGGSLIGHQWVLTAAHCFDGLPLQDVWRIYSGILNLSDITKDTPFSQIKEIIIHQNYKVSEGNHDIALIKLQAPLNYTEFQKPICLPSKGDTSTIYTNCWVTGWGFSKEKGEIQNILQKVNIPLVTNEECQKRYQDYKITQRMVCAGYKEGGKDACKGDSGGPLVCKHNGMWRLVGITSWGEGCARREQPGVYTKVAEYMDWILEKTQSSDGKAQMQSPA

B1: 06-09 (peptide)
peptide: ACTWPARCTHQNWCA
modifications: linker 2-8-14 via TBMB; not fully specified (N-terminus, C-terminus)
notes: also called PK107
For orientation: Ki means the dissociation constant of the complex between target and ligand, obtained from inhibition or displacement. Read a low Ki as higher affinity. Regarding B1, in test [1], affinity was put at a Ki of 1.2 nM.

B2: 06-A2* (peptide)
peptide: ACTWPARCTMQNWCA
modifications: linker 2-8-14 via TBMB
notes: also called PK108
In test [1], B2 registered a Ki of 181 nM.

B3: Ac-(06-34-18) Phe2 Cha4 (peptide)
peptide: Ac-CSFP[Cha]RCLHQDLC-NH2
modifications: linker 1-7-13 via TBMB
SMILES: CC(=O)N[C@H]1CSCc2cc3cc(c2)CSC[C@H](NC(=O)[C@H](CCCNC(=N)N)NC(=O)[C@H](CC2CCCCC2)NC(=O)[C@@H]2CCCN2C(=O)[C@H](Cc2ccccc2)NC(=O)[C@H](CO)NC1=O)C(=O)N[C@@H](CC(C)C)C(=O)N[C@@H](Cc1c[nH]cn1)C(=O)N[C@@H](CCC(N)=O)C(=O)N[C@@H](CC(=O)O)C(=O)N[C@@H](CC(C)C)C(=O)N[C@H](C(N)=O)CSC3
For the molecule B3, the affinity in test [2], expressed as Ki, was 0.91 nM.

B4: Ac-(06-34-18) 4Pal2 (peptide)
peptide: Ac-CS[4Pal]PARCLHQDLC-NH2
modifications: linker 1-7-13 via TBMB
SMILES: CC(=O)N[C@H]1CSCc2cc3cc(c2)CSC[C@H](NC(=O)[C@H](CCCNC(=N)N)NC(=O)[C@H](C)NC(=O)[C@@H]2CCCN2C(=O)[C@H](Cc2ccncc2)NC(=O)[C@H](CO)NC1=O)C(=O)N[C@@H](CC(C)C)C(=O)N[C@@H](Cc1c[nH]cn1)C(=O)N[C@@H](CCC(N)=O)C(=O)N[C@@H](CC(=O)O)C(=O)N[C@@H](CC(C)C)C(=O)N[C@H](C(N)=O)CSC3
In test [3], B4 returned a Ki of 72 nM.

B5: 06-61 (peptide)
peptide: ACSWPYRCLHQDYCA
modifications: linker 2-8-14 via TBMB; not fully specified (N-terminus, C-terminus)
notes: also called PK109
In test [1], B5 registered a Ki of 5.8 nM.

B6: Ac-(06-34-18) 3Pal2 (peptide)
peptide: Ac-CS[3Pal]PARCLHQDLC-NH2
modifications: linker 1-7-13 via TBMB
SMILES: CC(=O)N[C@H]1CSCc2cc3cc(c2)CSC[C@H](NC(=O)[C@H](CCCNC(=N)N)NC(=O)[C@H](C)NC(=O)[C@@H]2CCCN2C(=O)[C@H](Cc2cccnc2)NC(=O)[C@H](CO)NC1=O)C(=O)N[C@@H](CC(C)C)C(=O)N[C@@H](Cc1c[nH]cn1)C(=O)N[C@@H](CCC(N)=O)C(=O)N[C@@H](CC(=O)O)C(=O)N[C@@H](CC(C)C)C(=O)N[C@H](C(N)=O)CSC3
In the case of B6, in test [3], the affinity corresponds to a Ki of 59 nM.

B7: Ac-(06-34-18) 2NAL2 (peptide)
peptide: Ac-CS[2Nal]PARCLHQDLC-NH2
modifications: linker 1-7-13 via TBMB
SMILES: CC(=O)N[C@H]1CSCc2cc3cc(c2)CSC[C@H](NC(=O)[C@H](CCCNC(=N)N)NC(=O)[C@H](C)NC(=O)[C@@H]2CCCN2C(=O)[C@H](Cc2ccc4ccccc4c2)NC(=O)[C@H](CO)NC1=O)C(=O)N[C@@H](CC(C)C)C(=O)N[C@@H](Cc1c[nH]cn1)C(=O)N[C@@H](CCC(N)=O)C(=O)N[C@@H](CC(=O)O)C(=O)N[C@@H](CC(C)C)C(=O)N[C@H](C(N)=O)CSC3
B7: in test [3], affinity was put at a Ki of 0.5 nM.

B8: Ac-(06-34-18) Phe2 4Pal4 (peptide)
peptide: Ac-CSFP[4Pal]RCLHQDLC-NH2
modifications: linker 1-7-13 via TBMB
SMILES: CC(=O)N[C@H]1CSCc2cc3cc(c2)CSC[C@H](NC(=O)[C@H](CCCNC(=N)N)NC(=O)[C@H](Cc2ccncc2)NC(=O)[C@@H]2CCCN2C(=O)[C@H](Cc2ccccc2)NC(=O)[C@H](CO)NC1=O)C(=O)N[C@@H](CC(C)C)C(=O)N[C@@H](Cc1c[nH]cn1)C(=O)N[C@@H](CCC(N)=O)C(=O)N[C@@H](CC(=O)O)C(=O)N[C@@H](CC(C)C)C(=O)N[C@H](C(N)=O)CSC3
With B8, in test [2], the affinity, expressed as Ki, was 2.2 nM.

B9: 06-63 T (peptide)
peptide: ACADPWACLFRRPCA
modifications: linker 2-8-14 via TBMB; not fully specified (N-terminus, C-terminus)
notes: also called PK113
In the case of B9, the Ki in test [1] was 1280 nM.

B10: Ac-(06-34-18) Phe2 4,4-BPal4 (peptide)
peptide: Ac-CSFP[Bip]RCLHQDLC-NH2
modifications: linker 1-7-13 via TBMB
B10 returned a Ki in test [2] of 10.5 nM.

B11: 1F7 (peptide)
peptide: ACGGYNNCRAFSYCA
modifications: linker 2-8-14 via TBMB
notes: also called PK115
Consider B11, for which the Ki in test [1] came to 2.2 nM.

B12: Ac-(06-34-18) Phe2 3Pal4 (peptide)
peptide: Ac-CSFP[3Pal]RCLHQDLC-NH2
modifications: linker 1-7-13 via TBMB
In test [2], B12 gave an inhibition constant Ki of 2.57 nM.

B13: 1B1 (peptide)
peptide: ACAWPAKCLTRELCA
modifications: linker 2-8-14 via TBMB
notes: also called PK103
In test [1], B13 gave a Ki of 8.1 nM.

B14: Ac-(06-34-18) Phe2 1Nal4 (peptide)
peptide: Ac-CSFP[1Nal]RCLHQDLC-NH2
modifications: linker 1-7-13 via TBMB
SMILES: CC(=O)N[C@H]1CSCc2cc3cc(c2)CSC[C@H](NC(=O)[C@H](CCCNC(=N)N)NC(=O)[C@H](Cc2cccc4ccccc24)NC(=O)[C@@H]2CCCN2C(=O)[C@H](Cc2ccccc2)NC(=O)[C@H](CO)NC1=O)C(=O)N[C@@H](CC(C)C)C(=O)N[C@@H](Cc1c[nH]cn1)C(=O)N[C@@H](CCC(N)=O)C(=O)N[C@@H](CC(=O)O)C(=O)N[C@@H](CC(C)C)C(=O)N[C@H](C(N)=O)CSC3
As for B14, the inhibition constant Ki in test [2] was found to be 13.5 nM.

B15: Ac-(06-34-18) Phe2 2Nal4 (peptide)
peptide: Ac-CSFP[2Nal]RCLHQDLC-NH2
modifications: linker 1-7-13 via TBMB
In test [2], B15 registered an inhibitory constant (Ki) of 7.27 nM.

B16: 06-157 (peptide)
peptide: ACNWPYRCLHTDLCA
modifications: linker 2-8-14 via TBMB; not fully specified (N-terminus, C-terminus)
notes: also called PK110
B16 displayed a Ki in test [1] of 3.3 nM.

B17: Ac-(06-34-18) 1NAL2 (peptide)
peptide: Ac-CS[1Nal]PARCLHQDLC-NH2
modifications: linker 1-7-13 via TBMB
SMILES: CC(=O)N[C@H]1CSCc2cc3cc(c2)CSC[C@H](NC(=O)[C@H](CCCNC(=N)N)NC(=O)[C@H](C)NC(=O)[C@@H]2CCCN2C(=O)[C@H](Cc2cccc4ccccc24)NC(=O)[C@H](CO)NC1=O)C(=O)N[C@@H](CC(C)C)C(=O)N[C@@H](Cc1c[nH]cn1)C(=O)N[C@@H](CCC(N)=O)C(=O)N[C@@H](CC(=O)O)C(=O)N[C@@H](CC(C)C)C(=O)N[C@H](C(N)=O)CSC3
Take B17: the affinity in test [3] corresponds to a Ki of 10.7 nM.

B18: Ac-(06-34-18) Cha2 Tyr4 (peptide)
peptide: Ac-CS[Cha]PYRCLHQDLC-NH2
modifications: linker 1-7-13 via TBMB
With B18, the inhibition constant Ki in test [2] is 1.87 nM.

B19: Ac-(06-34-18) 4Pal2 Tyr4 (peptide)
peptide: Ac-CS[4Pal]PYRCLHQDLC-NH2
modifications: linker 1-7-13 via TBMB
For the molecule B19, the Ki in test [2] is 3.56 nM.

B20: Ac-(06-34-18) 3Pal2 Tyr4 (peptide)
peptide: Ac-CS[3Pal]PYRCLHQDLC-NH2
modifications: linker 1-7-13 via TBMB
B20 returned a Ki in test [2] of 0.91 nM.

B21: 06-64 T (peptide)
peptide: ACGVPYRCTHQEMCA
modifications: linker 2-8-14 via TBMB; not fully specified (N-terminus, C-terminus)
notes: also called PK111
Turning to B21, the Ki in test [1] was 6.9 nM.
